Measured values as given in patent publication US20260242478A1 (published 2026).
Where no end group is shown, it is not given here.

B1: Phage-814 (Peptide-87 library peptide, SEQ ID NO: 1130) (peptide)
peptide: YCQGHSAEYMMKCL
B2: Phage-815 (Peptide-87 library peptide, SEQ ID NO: 1131) (peptide)
peptide: YCAGHLPQYMNKCL
B3: Phage-816 (Peptide-87 library peptide, SEQ ID NO: 1132) (peptide)
peptide: YCDGHKAEYMEKCL
B4: Phage-817 (Peptide-87 library peptide, SEQ ID NO: 1133) (peptide)
peptide: YCAGHLPMYMAKCL
B5: Phage-818 (Peptide-87 library peptide, SEQ ID NO: 1134) (peptide)
peptide: YCDGHTREYIDKCL
B6: Phage-819 (Peptide-87 library peptide, SEQ ID NO: 1135) (peptide)
peptide: YCVGHAPEFMAKCL
B7: Phage-820 (Peptide-87 library peptide, SEQ ID NO: 1136) (peptide)
peptide: YCAGHAEQYMAKCL
B8: Phage-821 (Peptide-87 library peptide, SEQ ID NO: 1137) (peptide)
peptide: YCDGHLSEYMFKCL
B9: Phage-822 (Peptide-87 library peptide, SEQ ID NO: 1138) (peptide)
peptide: YCDGHLGVYMAKCL
B10: Phage-823 (Peptide-87 library peptide, SEQ ID NO: 1139) (peptide)
peptide: YCDGHTSEYITKCL
B11: Phage-824 (Peptide-87 library peptide, SEQ ID NO: 1140) (peptide)
peptide: YCDGHSPEYIAKCL
B12: Phage-825 (Peptide-87 library peptide, SEQ ID NO: 1141) (peptide)
peptide: YCDGHLAEYMVKCL
B13: Phage-826 (Peptide-87 library peptide, SEQ ID NO: 1142) (peptide)
peptide: YCDGHAPMYMAKCL
B14: Phage-827 (Peptide-87 library sequence, SEQ ID NO: 1143) (peptide)
peptide: YCEGHLPAYMQKCL
B15: Phage-828 (Peptide-87 library sequence, SEQ ID NO: 1144) (peptide)
peptide: YCEGHHPQYMAKCL
B16: Phage-795 (peptide)
peptide: YCAGHLPEYLSKCL
B17: Phage-796 (peptide)
peptide: YCEGHLQIYMSKCL
B18: Phage-797 (peptide)
peptide: YCAGHAPEYMFKCM
B19: Phage-798 (peptide)
peptide: YCEGHRPEYMAKCL
B20: Phage-799 (peptide)
peptide: YCEGHLPEYMRKCL
B21: Phage-800 (peptide)
peptide: YCDGHSPAYMAKCL
B22: Phage-801 (peptide)
peptide: YCDGHLPMYFAKCM
modifications: cysteine pairing not given here; also: displayed on phage by fusion to pIII, pIII and linker sequence not given here
notes: Clonal phage of the Peptide-87 library; not shown: fused to the pIII filament protein of the bacteriophage
B23: Phage-802 (peptide)
peptide: YCDGHSSEYIVKCL
modifications: cysteine pairing not given here; also: displayed on phage by fusion to pIII, pIII and linker sequence not given here
notes: as for B22
B24: Phage-803 (peptide)
peptide: YCEGHAAEYMWKCL
modifications: cysteine pairing not given here; also: displayed on phage by fusion to pIII, pIII and linker sequence not given here
notes: as for B22
B25: Phage-804 (peptide)
peptide: YCEGHSAEYIFKCL
modifications: cysteine pairing not given here; also: displayed on phage by fusion to pIII, pIII and linker sequence not given here
notes: as for B22
B26: Phage-805 (peptide)
peptide: YCEGHSPMYMQKCM
modifications: cysteine pairing not given here; also: displayed on phage by fusion to pIII, pIII and linker sequence not given here
notes: as for B22
B27: Phage-806 (peptide)
peptide: YCDGHSAEYMEKCI
modifications: cysteine pairing not given here; also: displayed on phage by fusion to pIII, pIII and linker sequence not given here
notes: as for B22
B28: Phage-807 (peptide)
peptide: YCDGHLPLYMHKCL
modifications: cysteine pairing not given here; also: displayed on phage by fusion to pIII, pIII and linker sequence not given here
notes: as for B22
B29: Phage-808 (peptide)
peptide: YCEGHAPQYLNKCL
modifications: cysteine pairing not given here; also: displayed on phage by fusion to pIII, pIII and linker sequence not given here
notes: as for B22
B30: Phage-809 (peptide)
peptide: YCDGHAREYMTKCL
modifications: cysteine pairing not given here; also: displayed on phage by fusion to pIII, pIII and linker sequence not given here
notes: as for B22
B31: Phage-810 (peptide)
peptide: YCDGHTEEYMDKCL
modifications: cysteine pairing not given here; also: displayed on phage by fusion to pIII, pIII and linker sequence not given here
notes: as for B22
B32: Phage-811 (peptide)
peptide: YCDGHSSMYMAKCL
modifications: cysteine pairing not given here; also: displayed on phage by fusion to pIII, pIII and linker sequence not given here
notes: as for B22
B33: Phage-812 (peptide)
peptide: YCAGHSSEYIWKCL
modifications: cysteine pairing not given here; also: displayed on phage by fusion to pIII, pIII and linker sequence not given here
notes: as for B22
B34: Phage-813 (peptide)
peptide: YCEGHSAEFMTKCL
modifications: cysteine pairing not given here; also: displayed on phage by fusion to pIII, pIII and linker sequence not given here
notes: as for B22

Molecular target: Anti-CD28 Fab (SEQ ID NOs: 696, 697)
Experiment: phage ELISA; clonal phage on biotinylated anti-CD28 Fab captured on neutravidin, anti-M13 HRP detection
Target sequence in this assay (VH, as listed by the source, chain 1 of 2): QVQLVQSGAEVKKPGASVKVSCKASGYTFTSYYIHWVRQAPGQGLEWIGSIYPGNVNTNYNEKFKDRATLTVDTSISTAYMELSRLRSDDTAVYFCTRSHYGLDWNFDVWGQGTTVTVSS
Target sequence in this assay (VL, as listed by the source, chain 2 of 2): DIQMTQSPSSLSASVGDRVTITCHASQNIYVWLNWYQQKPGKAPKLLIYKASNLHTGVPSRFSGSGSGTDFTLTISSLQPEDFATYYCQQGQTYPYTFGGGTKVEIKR
Experimental: (§1) After panning, phage infected bacteria were plated out and colonies picked into 96 well blocks. Clonal phage was then amplified and separated from bacterial cells via centrifugation.
(§2) Clonal phage were harvested as crude supematants and screened via standard ELISAs. […] Prior to the addition of clonal phage, wells were incubated with blocking buffer and CD28 antigen or blocking buffer alone. Without washing or aspirating, clonal phage supematants were then added to the wells and incubated for a short time. Wells were then washed followed by detection of bound phage using a horse radish conjugated anti-M13 antibody. Clonal phage of interest were then sent for sequence analysis.

Row | Binder | Phage binding ELISA, Anti-CD28 Fab signal
1 | B1 | 1.81
2 | B2 | 1.81
3 | B3 | 1.81
4 | B4 | 1.8
5 | B5 | 1.8
6 | B6 | 1.8
7 | B7 | 1.8
8 | B8 | 1.79
9 | B9 | 1.79
10 | B10 | 1.79
11 | B11 | 1.79
12 | B12 | 1.79
13 | B13 | 1.79

Molecular target: T1, Anti-CD28 Fab (SEQ ID NOs: 696, 697)
T1 construct: Biotinylated and captured on neutravidin coated plates in the phage ELISA
Experiment: phage binding ELISA on captured anti-CD28 Fab, wells pre-incubated with CD28 antigen as competitor; anti-M13 HRP detection
T1 sequence (VH, as listed by the source, chain 1 of 2): as the sequence (VH, as listed by the source, chain 1 of 2) above
T1 sequence (VL, as listed by the source, chain 2 of 2): as the sequence (VL, as listed by the source, chain 2 of 2) above
Experimental: as §1, §2

Row | Binder | Phage binding ELISA, Anti-CD28 Fab signal in the presence of CD28
14 | B14 | 0.07
15 | B15 | 0.09

Molecular target: Anti-CD28 Fab (SEQ ID NOs: 696, 697)
Experiment: phage ELISA on captured anti-CD28 Fab; competitor CD28 antigen pre-incubated in the wells;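 further: clonal phage supernatants added to wells preloaded with CD28 antigen in blocking buffer, control wells buffer only, bound phage read via HRP-linked anti-M13 antibody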
Target sequence in this assay (VH, as listed by the source, chain 1 of 2): as the sequence (VH, as listed by the source, chain 1 of 2) above
Target sequence in this assay (VL, as listed by the source, chain 2 of 2): as the sequence (VL, as listed by the source, chain 2 of 2) above
Experimental: as §1, §2

Row | Binder | Phage binding ELISA, Anti-CD28 Fab signal in the presence of CD28
16 | B1 | 0.07
17 | B2 | 0.06
18 | B3 | 0.09
19 | B4 | 0.08
20 | B5 | 0.08
21 | B6 | 0.1
22 | B7 | 0.08
23 | B8 | 0.1
24 | B9 | 0.07
25 | B10 | 0.07
26 | B11 | 0.23
27 | B12 | 0.08
28 | B13 | 0.08

Molecular target: Anti-CD28 Fab (SEQ ID NOs: 696, 697)
Experiment: phage binding ELISA; anti-CD28 Fab on plate pre-incubated with CD28 antigen as competitor, anti-M13 HRP detection
Target sequence in this assay (VH, as listed by the source, chain 1 of 2): as the sequence (VH, as listed by the source, chain 1 of 2) above
Target sequence in this assay (VL, as listed by the source, chain 2 of 2): as the sequence (VL, as listed by the source, chain 2 of 2) above
Experimental: as §1, §2

Row | Binder | Anti-CD28 Fab signal in the presence of CD28 (phage binding ELISA)
29 | B16 | 0.07
30 | B17 | 0.14
31 | B18 | 0.06
32 | B19 | 0.07
33 | B20 | 0.06
34 | B21 | 0.1

Molecular target: T2, Anti-CD28 Fab (SEQ ID NOs: 696, 697)
T2 construct: Biotinylated and captured on neutravidin coated plates in the phage ELISA
Experiment: phage binding ELISA; biotinylated Fab on neutravidin plate, clonal phage supernatant, anti-M13 HRP detection;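 further: phage from clones picked after panning, added to wells pre-incubated with blocking buffer with or without CD28 antigen, then briefly incubated and washed before detection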
T2 sequence (VH, as listed by the source, chain 1 of 2): as the sequence (VH, as listed by the source, chain 1 of 2) above
T2 sequence (VL, as listed by the source, chain 2 of 2): as the sequence (VL, as listed by the source, chain 2 of 2) above

Row | Binder | Anti-CD28 Fab (SEQ ID NOs: 696, 697) signal
35 | B22 | 1.83
36 | B23 | 1.83
37 | B24 | 1.83
38 | B25 | 1.83
39 | B26 | 1.83
40 | B27 | 1.83
41 | B28 | 1.82
42 | B29 | 1.82
43 | B30 | 1.82
44 | B31 | 1.82
45 | B32 | 1.82
46 | B33 | 1.82
47 | B34 | 1.81

Molecular target: T2, Anti-CD28 Fab (SEQ ID NOs: 696, 697)
Experiment: phage binding ELISA; Fab on plate pre-incubated with CD28 antigen as competitor, anti-M13 HRP detection;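 further: crude clonal phage supernatants screened by ELISA, with comparison wells pre-incubated in blocking buffer only, lacking CD28 antigen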
Experimental: as §1, §2

Row | Binder | Anti-CD28 Fab signal in the presence of CD28
48 | B22 | 0.06
49 | B23 | 0.06
50 | B24 | 0.07
51 | B25 | 0.05
52 | B26 | 0.06
53 | B27 | 0.07
54 | B28 | 0.07
55 | B29 | 0.08
56 | B30 | 0.06
57 | B31 | 0.09
58 | B32 | 0.06
59 | B33 | 0.06
60 | B34 | 0.06

Molecular target: Anti-CD28 Fab (SEQ ID NOs: 696, 697)
Experiment: phage binding ELISA; biotinylated anti-CD28 Fab on neutravidin plate, clonal phage supernatant, anti-M13 HRP detection
Target sequence in this assay (VH, as listed by the source, chain 1 of 2): as the sequence (VH, as listed by the source, chain 1 of 2) above
Target sequence in this assay (VL, as listed by the source, chain 2 of 2): as the sequence (VL, as listed by the source, chain 2 of 2) above

Row | Binder | Anti-CD28 Fab signal (phage binding ELISA)
61 | B16 | 1.84
62 | B17 | 1.84
63 | B18 | 1.83
64 | B19 | 1.83
65 | B20 | 1.83
66 | B21 | 1.83

Molecular target: T1, Anti-CD28 Fab (SEQ ID NOs: 696, 697)
Experiment: phage binding ELISA; clonal phage supernatant on biotinylated anti-CD28 Fab captured on neutravidin plate; anti-M13 HRP detection
Experimental: as §1, §2

Row | Binder | Phage binding ELISA, Anti-CD28 Fab signal
67 | B14 | 1.78
68 | B15 | 1.78
